Columns and labels:
GST-SNAP25 197 [1] = molecular target: GST-SNAP25 197 (UniProt P60880); experiment: direct ELISA; A450 on GST-SNAP25 197 divided by A450 on GST-SNAP25 FL
GST-SNAP25 197 [2] = molecular target: GST-SNAP25 197 (UniProt P60880)
GST-SNAP25 FL = GST-SNAP25 FL (UniProt P60880)
Chain of GST-SNAP25 FL (P60880 whole entry): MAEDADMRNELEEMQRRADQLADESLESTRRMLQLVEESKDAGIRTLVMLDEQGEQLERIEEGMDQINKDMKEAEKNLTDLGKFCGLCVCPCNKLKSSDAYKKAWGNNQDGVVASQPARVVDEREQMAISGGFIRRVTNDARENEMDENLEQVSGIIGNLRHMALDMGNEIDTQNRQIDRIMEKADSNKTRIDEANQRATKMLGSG

Chain of GST-SNAP25 197 (P60880 1-197 limits assumed): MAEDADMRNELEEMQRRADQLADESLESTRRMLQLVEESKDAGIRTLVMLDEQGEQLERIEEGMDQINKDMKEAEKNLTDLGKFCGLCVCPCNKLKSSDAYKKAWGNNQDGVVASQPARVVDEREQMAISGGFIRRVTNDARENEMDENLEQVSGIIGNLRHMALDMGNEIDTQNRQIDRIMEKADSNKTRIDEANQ

Binder | Ratio 197/206 (GST-SNAP25 197 [1]) | A450 with SNAP25 197 (GST-SNAP25 197 [2]) | A450 with SNAP25 FL (GST-SNAP25 FL)
C4 (antibody, V domains shown) VH: DVKLQESGPGLVKPSQSLSLTCTVTGYSITSDYAWNWIRQFPGNKLEWMGYISYSVGTRYNPSLKSRISITRDTSKNQFFLLLKSVTNEDTATYFCARKGEYGFAYWGQGTLVTVSA VL: DIVMTQSPASLAVSLGQRATISCRASKSVSTSGYSYMHWYQQKPGQPPKLLIYLASNLESGVPARFSGSGSGTDFTLNIHPVEEEDAATYYCQHSRELPLTFGAGTKLELK | 919 | 0.919 | 0.001
C7 (antibody, V domains shown) VH: QVQLVETGGGLVQPKGSLKLSCAASGFTFNTNAMNWVRQAPGKGLEWVARIRSKSNNYATYYADSVKDRFTISRDDSQSLLYLQMNNLKTEDTAMYYCVYGRSYGGLSYWGQGTLVTVSA VL: DIVMTQSPASLAVSLGQRATISCRASKSVSSSGYSYMHWYQQKPGQPPKLLIYLASNLESGVPARFSGSGSGTDFTLNIHPVEEEDAATYYCQHSRELPLTFGAGTKLELK | 1040 | 1.2 | 0.001
C24 (antibody, V domains shown) VH: EVKLVESGGGLVQPKGSLKLSCAASGYTFNTYAMNWVRQAPGKGLEWVARIRSKSNNYTTYYADSVKDRFTISRDDSQSMLYLQINNLKTEDTAMYYCVGQILYYYVGSPAWFAYWGQGTLVTVSA VL: DIVMTQSPASLAVSLGQRATISCRASKSVSTSGYSYMHWYQQKPGQPPKLLIFLASNLESGVPARFSGSGSGTDFTLNIHPVEEEDAATYYCQHSRELPWTFGGGTKLEIK | 973 | 0.973 | 0.001
C14 (antibody, V domains shown) VH: EVKLVESGGGLVQPKGSLKLSCAASGFTFNTNAMNWVRQAPGKGLEWVARIRSKSDNYATYYADSVKDRFTISRDDSPSMLYLQMNNLKTEDTAMYYCVYGRSYGGLGYWGQGTLVTVSA VL: DIVLTQSPASLAVSLGQRATISCRASKSVSTSGYSYVHWYQQKPGQPPKLLIYLASNLESGVPARFSGSGSGTDFTLNIHPVEEEDAATYYCQHSRELPLTFGAGTKLELK | 953 | 0.953 | 0.001
C16 (antibody, V domains shown) VH: EVQLQQSGAELARPGASVQMSCKAFGYTFTNYTMHWVRQRPGQGLEWIGFINPSSDYTNYNQKFKDKATLSADKSSSTAYMQLSSLTSEDSAVYYCARRIFYNGRTYAAMDYWGQGTSVTVSS VL: DIVMTQSPASLAVSLGQRATISCRASKSVSSSGYSYMHWYQQKPGQPPKLLIYLASNLESGVPARFSGSGSGTDFTLNIHPVEEEDAATYYCQHSRELPLTFGAGTKLELK | 996 | 0.996 | 0.001
D2 (antibody, V domains shown) VH: DVKLQESGPGLVKPSQSLSLTCSVTGYSITSGYYWNWIRQFPGNKLEWMGYIRYDGSNNYNPSLKNRISITRDTSKNQFFLKLNSVTTEDTASYYCARDRDSSYYFDYWGQGTALTVSS VL: DIVMTQSSSYLSVSLGGRVTITCKASDHINNWLAWYQQKPGNAPRLLISDTTSLETGVPSRFSGSGSGKDYTLSITSLQTEDVATYYCQQYWSAPPTFGGGTKLEIK | 0.03 | 0.048 | 1.45
D3 (antibody, V domains shown) VH: EVQLEESGGGLVQPGGSLKLSCAASGFTFSNYGMSWVRQTPDKRLELVATINSNGGTTYYPDSVKGRFTISRDNAKNTLYLQMSSLKSEDSAMYYCARDRDAMDYWGQGTSVTVSS VL: DVLMTQTPLSLPVSLGDQASISCRSSQSIVNSHGNTYLEWYLQKPGQSPKLLIYKVSNRFSGVPDRFSGSGSGTDFTLKISRVEAEDLGVYYCFQGSHVPWTFGGGTKLEIK | 12.9 | 1.62 | 0.125
B4 (antibody, V domains shown) VH: EVKLVESGGGLVKPGGSLKLSCAASGFTFSNYGMSWVRQTPEKRLEWVATISSGGSYTYYPDSVKGRFTISRDNAKNTLYLQMSSLRSEDTAMYYCARHEGGGNPYFDYWGQGTTLTVSS VL: DVLMTQTPLSLPVSLGDQASISCRSSQSLVHSNGNTYLHWYLQKPGQSPKLLIYKVSNRFSGVPDRFSGSGSGTDFTLKISRVEAEDLGVYFCSQNTLVPWTFGGGTKLEIK | 0.83 | 1.8 | 2.16

Source: patent KR20200072008A
